# Data: patent US20190309074A1, “DEGLYCOSYLATED ANTIBODY SPECIFICALLY BINDING TO CLEC14A AND USES THEREOF” (WOORI TECHNOLOGIES CORPORATION, priority 2016, published 2019)
# B1: Clone 1 IgG: parent antibody CDRs grafted to the framework region of omalizumab (Xolair®) (antibody, V domains shown)
# VH: EVQLVESGGGLVQPGGSLRLSCAVSGFTFSGYDMSWIRQAPGKGLEWVAGIYPDGGNTYYADSVKGRFTISRDDSKNTFYLQMNSLRAEDTAVYYCARGATWWVLGPFDYWGQGTLVTVSS
# VL: DIQLTQSPSSLSASVGDRVTITCTGSSSNIGNNSVTWYQQKPGKAPKLLIYADSHRPSGVPSRFSGSGSGTDFTLTISSLQPEDFATYYCGAWDDSLSGYVFGQGTKVEIKR
# Key:
# [1] = aggregation of purified antibody by visual observation and spectrophotometry; type: physicochemical; details: for aggregation by visual observation: purified antibody preparation
# Source text: In order to identify improved aggregation degree of clone 1 IgG, aggregation of purified parent antibody IgG and clone 1 IgG was compared by visual observation and then was confirmed by spectrophotometry.
# HUVEC tube formation = HUVEC tube formation assay; type: cell-based, human; details: branches as % of MOCK
# Description: Genetic mutation introduced during antibody engineering induces unpredicted defects, resulting in deterioration in antibody functions. In order to isolate antibodies for suppressing clec14a-mediated angiogenesis, tube formation and endothelial cell migration assay using human umbilical vein endothelial cells (HUVECs) were conducted in the presence or absence of clone 1 IgG and deglyco C1-C4 IgGs. Among the four types of deglyco IgGs, deglyco C1 IgG was selected as a candidate antibody. […] In addition, it can be seen that deglyco C1 IgG includes desired alterations (N32R/N33C/S34G) in the amino acid sequence in light chain CDR1.
# In order to compare in vitro angiogenesis suppression effect between deglyco C1 IgG and bevacizumab, tube formation and migration assay were conducted in the presence or absence of parent antibody IgG, deglyco C1 IgG or bevacizumab as a positive control group.
# In order to investigate in vitro effects of deglyco C1 IgG on VEGF-dependent angiogenesis, HUVECs were treated with VEGF in the presence or absence of deglyco C1 IgG, and then HUVEC tube formation assay was conducted. 150 μl of Matrigel was added to a 48-well plate and incubated at 37° C. for 30 minutes. HUVEC (10^5) cultured in EGM-2 were collected, seeded on the Matrigel-coated plate and incubated at 37° C. for 18 hours in the presence or absence of clone 1 IgG, parent antibody IgG, deglycosylated clec14a-CTLD IgG or bevacizumab. HUVECs cultured in VEGF-containing EBM (endothelial cell basal medium) were seeded to the Matrigel-coated plate and incubated at 37° C. for 18 hours in the presence or absence of deglyco C1 IgG (20 μg ml^−1).
# mclec14a-CTLD-Fc = molecular target: T1, mclec14a-CTLD-Fc (Mus musculus, UniProt Q8VCP9); experiment: ELISA binding specificity
# T1 construct: both human and mouse clec14a-CTLDs (hclec14a-CTLD and mclec14a-CTLD)
# T1 sequence (Q8VCP9 33-173 limits assumed): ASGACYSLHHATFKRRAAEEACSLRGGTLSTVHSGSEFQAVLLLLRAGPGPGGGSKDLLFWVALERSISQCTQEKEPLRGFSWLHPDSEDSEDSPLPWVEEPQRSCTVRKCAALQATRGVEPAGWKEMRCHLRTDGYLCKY
# Source text: (§1) Then, the scFv clones were converted into IgG, expressed in human embryonic kidney (HEK) 293 cells and then purified.
# hclec14a-CTLD-Fc = molecular target: T2, hclec14a-CTLD-Fc (Homo sapiens, UniProt Q86T13); experiment: ELISA binding specificity
# T2 sequence (Q86T13 33-173 limits assumed): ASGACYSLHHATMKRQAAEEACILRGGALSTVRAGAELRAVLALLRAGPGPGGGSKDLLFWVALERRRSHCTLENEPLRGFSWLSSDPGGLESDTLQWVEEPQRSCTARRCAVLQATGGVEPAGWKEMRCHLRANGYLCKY
# Source text: as §1
# [2] = water-soluble antibody weighed after aggregates precipitated and removed by centrifugation; type: physicochemical
# Source text: For further comparison in stability between parent antibody IgG and clone 1 IgG, a water-soluble antibody was weighed after aggregates were precipitated and removed by centrifugation.
molecule,measurement,setting,value
B1,aggregation by visual observation,[1],not visually observed
same,aggregation by visual observation,[1]; listed as the antibody substituted with the framework of omalizumab (Xolair®),no aggregation
same,Aggregation index,"[1]; spectrophotometry, 100×[Abs340/(Abs280−Abs340)]",~1.5
same,inhibitory activity against HUVEC tube formation,HUVEC tube formation,"inhibitory activity against tube formation, comparable to the parent antibody"
same,binding to mclec14a-CTLD-Fc,mclec14a-CTLD-Fc,cross-reactivity to human and mouse CTLDs
same,binding to hclec14a-CTLD-Fc,hclec14a-CTLD-Fc,cross-reactivity to human and mouse CTLDs
same,antibody of the preparation aggregated,[2],no antibody aggregation was observed
